Like-named read-outs stand apart in the source and are kept apart here.
Assays:
[1] = system: transgenic maize R0 plants (double copy events); test: R0 plant greenhouse glyphosate spray: vegetative tolerance and induced male sterility; format: in vivo; conditions: for % Vegetative Tolerant / % Vegetative Tolerance: glyphosate 0.75 lb ae/acre at V5 then V8; for % Vegetative Tolerant: <=10% injury 7 days after V5 spray
Experimental: Transformation vectors containing the recombinant DNA constructs were used with an Agrobacterium-based transformation method and maize immature embryos and techniques known in the art. Leaf samples of R0 plants were collected and molecular analysis was conducted to select transgenic plants containing a single copy (one insertion) or a double copy (two independent insertions) of the recombinant DNA construct and no presence of vector backbone. Single copy events were not sprayed with glyphosate and were selfed and advanced for R1 seed collection, while double copy events were used for R0 glyphosate spray to assess vegetative tolerance and induced male sterility. Transgenic plants that were not sprayed with glyphosate had normal anthesis, normal pollen shedding, and normal pollen development as determined by Alexandar staining and microscopic observation.
Double copy R0 events were used in testing to approximate a single copy homozygous event. Plants were sprayed with glyphosate at two different growth stages to determine if the presence of the mts-siRNA target element in the recombinant DNA construct provided vegetative glyphosate tolerance and glyphosate-induced tassel sterility. The plants were sprayed in a greenhouse with 1× glyphosate (0.75 lb ae/acre) applied at the V5 stage followed by 1× glyphosate (0.75 lb ae/acre) applied at the V8 stage. Seven days after the V5 stage glyphosate application, plants were scored for vegetative injury with scores of ≦10% injury considered as showing vegetative glyphosate tolerance (% Vegetative Tolerant). Male sterility was measured in two ways. […] Anthers were then collected and dissected to microscopically observe pollen development. Anthers for each event were tested for no viable pollen grains produced as detected by Alexandar staining under microscopic observation and scored as not producing any viable pollen (% No Pollen). In plants not sprayed with glyphosate, tassel development, anther extrusion, and pollen development were normal.
The mts-siRNA target elements were tested in multiple transformation vector configurations. Each transformation vector was used to produce multiple R0 plants with each R0 plant representing a unique transgenic event made using the same transformation vector. Data for three different transformation vector configurations are provided as Tables 11 and 12.

transgenic maize plants = conditions: for AES90+8 (LSD = 10): average anther extrusion at S90+8, same glyphosate regimen; for Seed Yield bu/acre (LSD = 24.7): end of season; for CIPVT (LSD = 8.1): glyphosate 1.5 lbs ae/acre at V2, 0.75 at V8, 0.75 at V10, range over events; for Avg. plant height (inches) (LSD = 6.9): in vivo
[2] = vector configuration A, no viable pollen by Alexandar staining
[3] = vector configuration A, no anther extrusion up to S90+12 after V8 glyphosate

B1: SEQ ID NO: 8: mts-siRNA target element, nucleotide positions 247 to 441 of cDNA SEQ ID NO: 21 (nucleic acid)
DNA: AGATTGGTCATACACTAGATAGGGCTAGATCACTCGGGTCGCCACAAGTTGAAGAATGCAAAGAGTGTCCACATGATTTCATGGTGATGAACAGTGATTTTATGAGCAAACTAGCAAAGGATAATCAGTTGCATATATGTGATGAAGACCGATCAGTTTCCGAGCAAAGTAGCAAATGAGTCATCGAAGCTGTCA
modifications: Zea mays
% Vegetative Tolerant ([1]; vector configuration A, listed as 8): 90%
% Completely Male-sterile ([1]; vector configuration A, no anther extrusion up to S90+12 after V8 glyphosate, listed as 8): 100%
% No Pollen [1, 2]: 50%
AES90+8 (LSD = 10) (transgenic maize plants; listed as 8): 15.75-17.85%
Seed Yield bu/acre (LSD = 24.7) (transgenic maize plants): 80-90 bu/acre
CIPVT (LSD = 8.1) (transgenic maize plants): No significant difference
CIPVT (LSD = 8.1) (transgenic maize plants; listed as 8): 2.5-2.7%
Avg. plant height (inches) (LSD = 6.9) (transgenic maize plants): No significant difference
Avg. plant height (inches) (LSD = 6.9) (transgenic maize plants; listed as 8): 80.1 inches

B2: SEQ ID NO: 4: mts-siRNA target element, nucleotide positions 477 to 697 of cDNA SEQ ID NO: 18 (nucleic acid)
DNA: ACGAGGGAATGTCATTGGTCGATGAGTTGGAGGCGTCAAATGCAGATAAAGCTACAACTTCCATGTGGAGGATGACTGCGACGTTGTGGCAGACTCATCCACTACAGTGAGAGTCTAGGAAAGCATGAAGCCGATTGTGGACATCGATGTCGGTGTCAAGGACTTATAGATGTCATGTTGGGAGAGCAACCATGGCACGATAGTTAAGGCGCAAGGGTATC
modifications: Zea mays
% Vegetative Tolerant ([1]; vector configuration A): 86%
% Completely Male-sterile [1, 3]: 7%
% No Pollen [1, 2]: 0%
AES90+8 (LSD = 10) (transgenic maize plants; listed as 4): 16.25-18.75%
Seed Yield bu/acre (LSD = 24.7) (transgenic maize plants): 70-80 bu/acre
CIPVT (LSD = 8.1) (transgenic maize plants): No significant difference
CIPVT (LSD = 8.1) (transgenic maize plants; listed as 4): 1.25-3.75%

B3: SEQ ID NO: 6: mts-siRNA target element, nucleotide positions 370 to 477 of cDNA SEQ ID NO: 19 (nucleic acid)
DNA: TCGCCGAGAAGGGAGTAGTAGTATTACCTGATATCTATGCTAATTCAGGTGGTGTGGTCGTTAGCTACTTTAATTGAGTGGGTTCAGAACATTCAAGGTTTCATGTGG
modifications: chemistry not fully specified; the letters are possibly those of the target site
% Vegetative Tolerant ([1]; vector configuration A): 90%
% Completely Male-sterile [1, 3]: 82%
% No Pollen [1, 2]: 0%
AES90+8 (LSD = 10) (transgenic maize plants; listed as 6): 25%
CIPVT (LSD = 8.1) (transgenic maize plants): No significant difference
CIPVT (LSD = 8.1) (transgenic maize plants; listed as 6): 3.75%

B4: SEQ ID NO: 11: recombinant mts-siRNA target element sequence (nucleic acid)
DNA: AGACGACGACCGTGCATGGTGATGAATCACAGACGACGAACACGCATGTCGCATCGCCGTCCTCTCACACCATAGAACTGCAAATGTCCGACAACAAGCACCTTCTTGCCTTGCAGTATTGGTGGTGACGACATCCTTGGTGTGCATGCACTGGTGAGTCACTGT
% Completely Male-sterile ([1]; vector configuration B): 50%
% No Pollen ([1]; vector configuration B): 0%
% Vegetative Tolerance ([1]; vector configuration B): 100%
% Completely Male-sterile ([1]; vector configuration C): 80%
% No Pollen ([1]; vector configuration C): 0%
% Vegetative Tolerance ([1]; vector configuration C): 55%

B5: SEQ ID NO: 10: recombinant mts-siRNA target element sequence (nucleic acid)
DNA: AGACGACGACCGTGCATGGTGATGAATCACAGACGACGAACACGCATGTCGCATCGCCGTCCTCTCACACCATAGAACTGCAAATGTCCG
modifications: expressed or natural sequence; target site or template, no part of the molecule
% Completely Male-sterile ([1]; vector configuration B): 55%
% No Pollen ([1]; vector configuration B): 22%
% Vegetative Tolerance ([1]; vector configuration B): 90%
% Completely Male-sterile ([1]; vector configuration C): 100%
% No Pollen ([1]; vector configuration C): 0%
% Vegetative Tolerance ([1]; vector configuration C): 83%

B6: SEQ ID NO: 1: mts-siRNA target element, 95% identity to nucleotide positions 1429 to 1628 of cDNA SEQ ID NO: 17 (nucleic acid)
DNA: AGACGACGACCGTGCATGGTGATGAATCACAGACGACGAACACGCATGTCGCATCGCCGTCCTCTTTGTATCACACAGCATCACCTTCTTCGCTCTACTACTCCCCCGAGCAATCACCGACCAATAACACCAACCATCAACCTCCCCCGTCGCCGCCGCCTTCACCGTCCTCCCCTCACACCATAGAACTGCAAATGTCCG
% Completely Male-sterile ([1]; vector configuration B): 100%
% No Pollen ([1]; vector configuration B): 100%
% Vegetative Tolerance ([1]; vector configuration B): 67%
% Completely Male-sterile ([1]; vector configuration C): 100%
% No Pollen ([1]; vector configuration C): 60%
% Vegetative Tolerance ([1]; vector configuration C): 38%
AES90+8 (LSD = 10) (transgenic maize plants): 0-2.75%
AES90+8 (LSD = 10) (transgenic maize plants; listed as 1): 0-2.75%
Seed Yield bu/acre (LSD = 24.7) (transgenic maize plants): no significant decrease
Seed Yield bu/acre (LSD = 24.7) (transgenic maize plants; listed as 1): 97-99 bu/acre
CIPVT (LSD = 8.1) (transgenic maize plants): No significant difference
CIPVT (LSD = 8.1) (transgenic maize plants; listed as 1): 2.5-6.25%
Avg. plant height (inches) (LSD = 6.9) (transgenic maize plants): No significant difference
Avg. plant height (inches) (LSD = 6.9) (transgenic maize plants; listed as 1): 84.75 inches

B7: SEQ ID NO: 7: mts-siRNA target element, nucleotide positions 1357 to 1562 of cDNA SEQ ID NO: 20 (nucleic acid)
DNA: GGAACCGGTGACCAGCTGCACGACGATGAATCCTACAAGACGACCATGTAATACACAGTGTCGTCCTCTTCGTTCTACTACTCAACAGAGCAGTCGCCGACCAATAACGAATGGAGTATTATCTCTGTCCTTCACCTTACACCATATTCACACCATAGAACTGCAAATGTCCGAGGTACCAACTAACATCGGTACCTTTGGCATGA
modifications: Zea mays
% Vegetative Tolerant ([1]; vector configuration A, listed as 7): 88%
% Completely Male-sterile ([1]; vector configuration A, no anther extrusion up to S90+12 after V8 glyphosate, listed as 7): 100%
% No Pollen [1, 2]: 44%
AES90+8 (LSD = 10) (transgenic maize plants): 0-1.5%
AES90+8 (LSD = 10) (transgenic maize plants; listed as 7): 0-1.5%
Seed Yield bu/acre (LSD = 24.7) (transgenic maize plants): no significant decrease
Seed Yield bu/acre (LSD = 24.7) (transgenic maize plants; listed as 7): 100-110 bu/acre
CIPVT (LSD = 8.1) (transgenic maize plants): No significant difference
CIPVT (LSD = 8.1) (transgenic maize plants; listed as 7): 3.75-5%
Avg. plant height (inches) (LSD = 6.9) (transgenic maize plants): No significant difference
Avg. plant height (inches) (LSD = 6.9) (transgenic maize plants; listed as 7): 79.8 inches

B8: SEQ ID NO: 5: mts-siRNA target element, nucleotide positions 239 to 433 of cDNA SEQ ID NO: 19 (nucleic acid)
DNA: TGGCTGCTTCTGTTGGCGTGAAAGCTCGAGTGCTCCTAAATGGTCGTCGTATTAGCTGATACGACATCTACCCGATGCAATAGATAATATTGTTTACACGCGTGAGTC
modifications: chemistry not fully specified; the letters are possibly those of the target site
% Vegetative Tolerant ([1]; vector configuration A, listed as 5): 90%
% Completely Male-sterile ([1]; vector configuration A, no anther extrusion up to S90+12 after V8 glyphosate, listed as 5): 50%
% No Pollen [1, 2]: 0%
AES90+8 (LSD = 10) (transgenic maize plants; listed as 5): 10%-20%
CIPVT (LSD = 8.1) (transgenic maize plants): No significant difference
CIPVT (LSD = 8.1) (transgenic maize plants; listed as 5): 5%
